{
  "source": "paper PMC4738263",
  "about": "(Scientific Reports, 2016)",
  "parents": {"B1": {"name": "His-tag-attached wild-type Hydrogenobacter thermophilus cytochrome c552, holo protein [modified: heme c attached (holo protein); heme c attached (holo protein)] [Hydrogenobacter thermophilus] / itself (parent)", "chain": "NEQLAKQKGCMACHDLKAKKVGPAYADVAKKYAGRKDAVDYLAGKIKKGGSGVWGSVPMPPQNVTDAEAKQLAQWILSIK"}},
  "variants_of": "B1",
  "test": "Ni affinity chromatography (peak areas)",
  "conditions": "with itself, protein obtained from E. coli cells, read off a plot",
  "data": [
    {"variant": "NEQLFKQKGCVACHDLKAKKVGPAYADVAKKYAGRKDAVDYLAGKIKKGGSGVWGSVPMPPQNVTDAEAKQLAQWILSIK", "note": "[chain 1 A5F M11V]", "values": [
      {"measurement": "screen value", "setting": "parent: 27", "result": 14, "unit": "%"},
      {"measurement": "screen value", "setting": "parent: 68", "result": 83, "unit": "%"},
      {"measurement": "screen value", "result": 3, "unit": "%"}
    ]},
    {"variant": "NEQLFKQKGCVACHDLKAKKVGPAYADVAKKFAGRKDAVDELAGKIKKGGSGVWGSVPMPPQNVTDAEAKQLAQWVLSIK", "note": "[chain 1 A5F M11V Y32F Y41E I76V]", "values": [
      {"measurement": "screen value", "setting": "parent: 27", "result": 1.8, "unit": "%"},
      {"measurement": "screen value", "setting": "parent: 68", "result": 92, "unit": "%"},
      {"measurement": "screen value", "result": 6.2, "unit": "%"}
    ]},
    {"variant": "NEQLAKQKGCMACHDLKAKKVGPAYADVAKKFAGRKDAVDELAGKIKKGGSGVWGSVPMPPQNVTDAEAKQLAQWILSIK", "note": "[chain 1 Y32F Y41E]", "values": [
      {"measurement": "screen value", "setting": "parent: 27", "result": 11, "unit": "%"},
      {"measurement": "screen value", "setting": "parent: 68", "result": 76, "unit": "%"},
      {"measurement": "screen value", "result": 13, "unit": "%"}
    ]},
    {"variant": "NEQLAKQKGCMACHDLKAKKVGPAYADVAKKYAGRKDAVDYLAGKIKKGGSGVWGSVPMPPQNVTDAEAKQLAQWVLSIK", "note": "[chain 1 I76V]", "values": [
      {"measurement": "screen value", "setting": "parent: 27", "result": 19, "unit": "%"},
      {"measurement": "screen value", "setting": "parent: 68", "result": 75, "unit": "%"},
      {"measurement": "screen value", "result": 5.5, "unit": "%"}
    ]}
  ]
}
